We go through three molecules from patent US20180155451A1 (published 2018).

Numbering of substitutions follows the chain as printed.

First the molecules themselves.
T1: FcγRIIa type H extracellular domain with C-terminal His tag (human, UniProt P12318 34-217)
T1 construct: extracellular domain; also called FcgRIIa H; FcγRIIa H
T1 sequence (looked up): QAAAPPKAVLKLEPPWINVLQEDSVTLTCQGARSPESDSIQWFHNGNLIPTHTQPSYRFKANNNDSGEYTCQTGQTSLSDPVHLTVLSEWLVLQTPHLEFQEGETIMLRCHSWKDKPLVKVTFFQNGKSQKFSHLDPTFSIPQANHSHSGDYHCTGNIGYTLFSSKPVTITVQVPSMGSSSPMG

T2: FcγRIIa type R extracellular domain with C-terminal His tag (human, UniProt P12318 34-217)
T2 construct: extracellular domain; also called FcgRIIa R; FcγRIIa R
T2 sequence (looked up): T1 sequence (looked up) with H134R

T3: FcγRIIb extracellular domain with C-terminal His tag (human, UniProt P31994 43-217)
T3 construct: extracellular domain; also called FcgRIIb
T3 sequence (looked up): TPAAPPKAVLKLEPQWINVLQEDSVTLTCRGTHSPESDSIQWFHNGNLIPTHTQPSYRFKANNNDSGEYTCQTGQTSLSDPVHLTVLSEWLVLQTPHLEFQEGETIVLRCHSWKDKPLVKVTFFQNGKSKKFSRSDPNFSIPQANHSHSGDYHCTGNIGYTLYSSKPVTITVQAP

B1: GpH7-Kn045/GpH7-Hl048/GpL16-k0 (antibody, human IgG1, kappa)
heavy 1: QVQLVQSGAEVKKPGASVTVSCKASGYTFTDYEMHWIRQPPGEGLEWIGAIDPKTGDTAYSESFQDRVTLTADKSTSTAYMELSSLTSEDTAVYYCTRFYSYTYWGQGTLVTVSSASTKGPSVFPLAPSSKSTSGGTAALGCLVKDYFPEPVTVSWNSGALTSGVHTFPAVLQSSGLYSLSSVVTVPSSSLGTQTYICNVNHKPSNTKVDKKVEPKSCDKTHTCPPCPAPEYYAGPSVFLFPPKPKDTLMISRTPEVTCVVVDVSDEDPEVKFNWYVDGVEVHNAKTKPREEQYNATYRVVSVLTVLHQDWLNGKEYKCKVSNKALPAPIEKTISKAKGQPREPQVCTLPPSRDELTKNQVSLWCLVKGFYPSDIAVEWESNGQPENNYKTTPPVLDSDGSFFLYSKLTVDKSRWQQGNVFSCSVMHEALHNHYTQKSLSLSP
heavy 2: QVQLVQSGAEVKKPGASVTVSCKASGYTFTDYEMHWIRQPPGEGLEWIGAIDPKTGDTAYSESFQDRVTLTADKSTSTAYMELSSLTSEDTAVYYCTRFYSYTYWGQGTLVTVSSASTKGPSVFPLAPSSKSTSGGTAALGCLVKDYFPEPVTVSWNSGALTSGVHTFPAVLQSSGLYSLSSVVTVPSSSLGTQTYICNVNHKPSNTKVDKKVEPKSCDKTHTCPPCPAPELLAGPDVFLFPPKPKDTLMISRTPEVTCVVVDVSHEDPEVKFNWYVDGVEVHNAKTKPREEQYNSTYRVVSVLTVLHQDWLNGKEYKCKVSNKALPKPEEKTISKAKGQPREPQVYTLPPSRCELTKNQVSLSCAVKGFYPSDIAVEWESNGQPENNYKTTPPVLDSDGSFFLVSKLTVDKSRWQQGNVFSCSVMHEALHNHYTQKSLSLSP
light: DIVMTQSPLSLPVTPGEPASISCQASESLVHSNRNTYLHWYLQKPGQSPQLLIYKVSNRFSGVPDRFSGSGSGTDFTLKISRVEAEDVGVYYCSQNTHVPPTFGQGTKVEIERTVAAPSVFIFPPSDEQLKSGTASVVCLLNNFYPREAKVQWKVDNALQSGNSQESVTEQDSKDSTYSLSSTLTLSKADYEKHKVYACEVTHQGLSSPVTKSFNRGEC
notes: Heterodimerized anti-glypican-3 IgG1; also called Kn045/Hl048
B2: GpH7-Kn045/GpH7-Hl055/GpL16-k0 (antibody, human IgG1, kappa)
heavy 1: B1 heavy 1
heavy 2: B1 heavy 2 with Q293L, K328M
light: B1 light
notes: Heterodimerized anti-glypican-3 IgG1; also called Kn045/Hl055
B3: GpH7-Kn056/GpH7-Hl055/GpL16-k0 (antibody, human IgG1, kappa)
heavy 1: B1 heavy 1 with Q293L
heavy 2: B1 heavy 2 with Q293L, K328M
light: B1 light
notes: Heterodimerized anti-glypican-3 IgG1; also called Kn056/Hl055

T5 sequence (P08637 17-208): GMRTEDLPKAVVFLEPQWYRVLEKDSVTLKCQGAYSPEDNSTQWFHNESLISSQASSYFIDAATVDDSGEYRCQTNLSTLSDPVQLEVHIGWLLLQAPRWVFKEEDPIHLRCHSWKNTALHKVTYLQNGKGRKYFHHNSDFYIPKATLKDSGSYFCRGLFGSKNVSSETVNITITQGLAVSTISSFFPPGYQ

The target in one experiment is T4, FcγRIa extracellular domain with C-terminal His tag (human, UniProt P12314 16-292).
T4 construct: extracellular domain; also called FcgRIa; FcgRI
T4 sequence (P12314 16-292): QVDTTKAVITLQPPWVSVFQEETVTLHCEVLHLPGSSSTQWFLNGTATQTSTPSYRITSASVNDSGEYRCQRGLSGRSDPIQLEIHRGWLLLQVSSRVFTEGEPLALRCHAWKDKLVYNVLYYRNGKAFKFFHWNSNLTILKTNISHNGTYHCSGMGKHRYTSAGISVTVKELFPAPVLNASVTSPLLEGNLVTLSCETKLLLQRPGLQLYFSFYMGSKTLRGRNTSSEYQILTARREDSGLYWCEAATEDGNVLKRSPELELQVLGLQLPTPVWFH
The experiment is described as follows: SPR (Biacore T100), ratio of KD values. As for the experimental part:
(§1) These antibodies were assessed for the binding activity to each FcγR according to the method described in Reference Example 2.
(§2) Analysis of interaction between objective antibody and the FcγR was carried out using Biacore T100 (GE Healthcare). HBS-EP+ (GE Healthcare) was used as the running buffer, and the measurement temperature was set to 25° C. Chips produced by immobilizing the antigen peptide by the amine coupling method to a Series S Sencor Chip CM5 (GE Healthcare), or alternatively, chips produced by allowing preliminarily biotinylated antigen peptides to interact with and immobilize onto a Series S Sensor Chip SA (certified) (GE Healthcare) were used. Antibodies of interest were captured onto an antigen peptide-immobilized chip, and allowed to interact to each FcγR diluted with running buffer. To regenerate and repeatedly use the chip, the antibodies captured on the chip were washed off by reacting 10 mM glycine-HCl, pH 1.5.
(§3) The FcγR-binding activity of each antibody was assessed primarily using as an indicator the FcγR-binding activity and dissociation constant for FcγR.
Take B1: the KD ratio is 3.7 fold (KD of GpH7-Kn033/GpH7-Hl033/GpL16-k0 divided by KD of this antibody).

As for B2, the KD ratio was 3.7 fold (KD of GpH7-Kn033/GpH7-Hl033/GpL16-k0 divided by KD of this antibody).

Consider B3, for which the KD ratio was 2.9 fold (KD of GpH7-Kn033/GpH7-Hl033/GpL16-k0 divided by KD of this antibody).

A further experiment addresses T1, FcγRIIa type H extracellular domain …. The experiment is described as follows: SPR (Biacore T100), ratio of KD values. As for the experimental part: as §1, §2, §3
(In general: SPR reads the build-up and loss of mass on a sensor chip optically.)
For B1, the KD ratio was 52 fold (KD of GpH7-Kn033/GpH7-Hl033/GpL16-k0 divided by KD of this antibody).

Regarding B2, the KD ratio is 21 fold (KD of GpH7-Kn033/GpH7-Hl033/GpL16-k0 divided by KD of this antibody).

In the case of B3, the KD ratio was 20 fold (KD of GpH7-Kn033/GpH7-Hl033/GpL16-k0 divided by KD of this antibody).

The target in a further experiment is T2, FcγRIIa type R extracellular domain …. The experiment is described as follows: SPR (Biacore T100), ratio of KD values. As to the method:
as §1, §2, §3
Consider B1, for which the KD ratio is 154 fold (KD of GpH7-Kn033/GpH7-Hl033/GpL16-k0 divided by KD of this antibody).

As for B2, the KD ratio is 56 fold (KD of GpH7-Kn033/GpH7-Hl033/GpL16-k0 divided by KD of this antibody).

Take B3: the KD ratio is 44 fold (KD of GpH7-Kn033/GpH7-Hl033/GpL16-k0 divided by KD of this antibody).

Another experiment deals with T3, FcγRIIb extracellular domain with …. The experiment is described as follows: SPR (Biacore T100), ratio of KD values. As to the method:
as §1, §2, §3
For the molecule B1, the KD ratio was 34 fold (KD of GpH7-Kn033/GpH7-Hl033/GpL16-k0 divided by KD of this antibody).

On to B2, for which the KD ratio is 15 fold (KD of GpH7-Kn033/GpH7-Hl033/GpL16-k0 divided by KD of this antibody).

Turning to B3, the KD ratio was 14 fold (KD of GpH7-Kn033/GpH7-Hl033/GpL16-k0 divided by KD of this antibody).

A further experiment concerns the target T5, FcγRIIIa type F extracellular domain with C-terminal His tag (human, UniProt P08637 17-208).
T5 construct: extracellular domain; also called FcgRIIIa F; FcγRIIIa F
Briefly: SPR (Biacore T100), ratio of KD values. As to the method:
as §1, §2, §3
Turning to B1, the KD ratio was 419 fold (KD of GpH7-Kn033/GpH7-Hl033/GpL16-k0 divided by KD of this antibody).

Take B2: the KD ratio was 985 fold (KD of GpH7-Kn033/GpH7-Hl033/GpL16-k0 divided by KD of this antibody).

As to B3, the KD ratio was 1110 fold (KD of GpH7-Kn033/GpH7-Hl033/GpL16-k0 divided by KD of this antibody).

In another experiment the target is T6, FcγRIIIa type V extracellular domain with C-terminal His tag (human, UniProt P08637 17-208).
T6 construct: extracellular domain; also called FcgRIIIa V; FcγRIIIa V
T6 sequence (P08637 17-208 F176V): as the sequence (P08637 17-208) above, with F160V counted along it
The experiment is described as follows: SPR (Biacore T100), ratio of KD values. As to the method:
as §1, §2, §3
Regarding B1, the KD ratio is 170 fold (KD of GpH7-Kn033/GpH7-Hl033/GpL16-k0 divided by KD of this antibody).

For the molecule B2, the KD ratio was 300 fold (KD of GpH7-Kn033/GpH7-Hl033/GpL16-k0 divided by KD of this antibody).

In the case of B3, the KD ratio is 327 fold (KD of GpH7-Kn033/GpH7-Hl033/GpL16-k0 divided by KD of this antibody).

The next experiment deals with T4, FcγRIa extracellular domain with …. Briefly: SPR (Biacore T100), antibody captured on antigen-peptide chip, FcγR analyte, 1:1 Langmuir fit. As for the experimental part:
as §1, §2, §3
By Kd is commonly meant a measure of binding affinity in units of concentration. Read a low Kd as higher affinity. Take B1: the Kd came out at 0.019 nM.

Take B2: binding was put at a Kd of 0.019 nM.

Molecule B3 showed a Kd of 0.023 nM.

In a further experiment the target is T1, FcγRIIa type H extracellular domain …. The experiment is described as above. As for the experimental part:
as §1, §2, §3
B1 displayed a Kd of 11 nM.

B2: the dissociation constant (Kd) is 29 nM. This Kd lies about 2.6-fold higher than the previous one.

B3: binding was characterised by a dissociation constant (Kd) of 30 nM.

The target in a further experiment is T2, FcγRIIa type R extracellular domain …. The description is as above. As to the method: as §1, §2, §3
For B1, the Kd stood at 4.8 nM.

Consider B2, for which the Kd came to 13 nM.

B3 had a Kd of 17 nM.

A further experiment concerns the target T3, FcγRIIb extracellular domain with …. The experiment is described as above. As to the method:
as §1, §2, §3
Regarding B1, the affinity, expressed as Kd, was 110 nM. That is a sub-micromolar value.

The molecule B2 returned a dissociation constant (Kd) of 240 nM.

Molecule B3 displayed a Kd of 260 nM.

The target of the next experiment is T5, FcγRIIIa type F extracellular domain …. The experiment is described as above. As to the method: as §1, §2, §3
Take B1: the Kd worked out at 3.7 nM. That is a single-digit nanomolar value.

As to B2, binding was put at a Kd of 1.6 nM.

Consider B3, for which the affinity, expressed as Kd, was 1.4 nM.

Another experiment has as its target T6, FcγRIIIa type V extracellular domain …. The description is as above. As to the method: as §1, §2, §3
On to B1, for which the affinity, expressed as Kd, was 1.3 nM.

B2 yielded a Kd of 0.72 nM.

Turning to B3, binding was characterised by a dissociation constant (Kd) of 0.66 nM.
